Drawing on patent publication EP2857035B1 (Survac ApS, dated 2017), this text covers binding result and C50 for 34 molecules.

In the first test the target is T1, HLA-A2 (human).
T1 construct: MHC class I molecule without added peptide, from cell lysate; stably folded molecules immunoprecipitated with a conformation-dependent antibody; also called HLA-A*0201; HLA A*0201
The test can be described thus: assembly assay, T2 cell lysate.
For TAKKVRRAI (also called Survivin127-135) [Sur7], the binding result was “no binding”.

With RAIEQLAAM (also called Survivin133-141) [Sur2], the binding result was “no binding”.

With SVKKQFEEL (also called Survivin88-96) [Sur5], the binding result is “no binding”.

As for ETAKKVRRAI (also called Survivin126-135) [Sur10], the binding result was “no binding”.

A further test concerns the target HLA-B35 (human). As to the kind of experiment: assembly assay, T2-B35 cell lysate, W6/32 IP, IEF gel.
EPDLAQCFY [Sur51Y9] displayed a C50 of 1.5 µM.

EPDLAQCFF (also called Survivin51-59) [Sur51-59] yielded a C50 of 13 µM.

Regarding CPTENEPDL (also called Survivin46-54) [Sur46-54], the C50 was determined as 20 µM.

On to LPPAWQPFL (also called Survivin6-14) [Sur6-14], for which the C50 is more than 100 µM.

The molecule TPERMAEAGF (also called Survivin34-43) [Sur34-43] came in with a C50 of more than 100 µM.

As for CPTENEPDY [Sur46Y9], the C50 is 4 µM.

The target of the next test is T2, HLA-A3 (human).
T2 construct: MHC class I molecule from cell lysate; immunoprecipitated with mAb W6/32; also called HLA-A*0301
The test can be described thus: assembly assay, TAP-deficient cell lysate.
On to FLKDHRISTK [Sur13K9], for which the binding result is reported as “no binding”.

KLDRERAKNK [Sur 103-112]: the binding result is recorded as “no binding”.

On to CAFLSVKKQF [Sur 84-93], for which the binding result is on record as “no binding”.

PTIRRKNLRK (the text says nothing of its origin) [SurEx3-A3-2]: the binding result is recorded as “no binding”.

Take FLKLDRERAK [Sur 101-110]: the binding result is “no binding”.

For the molecule RITREEHKK (the text says nothing of its origin) [Sur2b-A3-1], the binding result is on record as “no binding”.

Consider IAKETNNKKK [Sur 113-122], for which the binding result is “no binding”.

For DLAQCFFCF [Sur 53-61], the binding result was “no binding”.

DLAQCFFCK [Sur53K9]: the binding result is “no binding”.

RISTFKNWPF [Sur 18-27]: the binding result was “no binding”.

In the next test the target is T1, HLA-A2. As to the kind of experiment: assembly assay, TAP-deficient cell lysate.
As to SVKKQFEELTL [Sur88-98], the binding result is listed as “no binding”.

Regarding PTLPPAWQPFL [Sur4-14], the binding result is recorded as “no binding”.

For the molecule LAQCFFCFKEL [Sur54-64], the binding result is reported as “no binding”.

For KLDRERAKNKI [Sur103-113], the binding result is “no binding”.

For another test, the target named is T3, HLA-A1 (human).
T3 construct: MHC class I molecule; also called HLA-A*0101
The test can be described thus: assembly assay, TAP-deficient cell lysate.
As for EPDLAQCFF (also called Survivin51-59) [Sur51-59], the binding result is given as “no binding (tested: peptide tested at 40, 4, 0.4, 0.04 µM)”.

For TPERMAEAGF (also called Survivin34-43) [Sur34-43], the binding result is “no binding (tested: peptide tested at 40, 4, 0.4, 0.04 µM)”.

As for TPERMAEAGY [sur34Y9], the binding result is “no binding (tested: peptide tested at 40, 4, 0.4, 0.04 µM)”.

With PTENEPDLAQ [Sur47-56], the binding result is recorded as “no binding (tested: peptide tested at 40, 4, 0.4, 0.04 µM)”.

LKDHRISTF [Sur14-22]: the binding result is listed as “no binding (tested: peptide tested at 40, 4, 0.4, 0.04 µM)”.

LKDHRISTY [sur14Y9]: the binding result is listed as “no binding (tested: peptide tested at 40, 4, 0.4, 0.04 µM)”.

Regarding ENEPDLAQCF [Sur49-58], the binding result is listed as “no binding (tested: peptide tested at 40, 4, 0.4, 0.04 µM)”.

In the case of ENEPDLAQCY [sur49Y9], the binding result is listed as “no binding (tested: peptide tested at 40, 4, 0.4, 0.04 µM)”.

As for FEELTLGEY [sur93Y9], the binding result is given as “no binding (tested: peptide tested at 40, 4, 0.4, 0.04 µM)”.

As to MAEAGFIHC [Sur38-46], the binding result was “no binding (tested: peptide tested at 40, 4, 0.4, 0.04 µM)”.

As to QFEELTLGEY [sur92Y9], the binding result is reported as “no binding (tested: peptide tested at 40, 4, 0.4, 0.04 µM)”.

The next test deals with T4, HLA-A11 (human).
T4 construct: MHC class I molecule from cell lysate; immunoprecipitated with mAb W6/32; also called HLA-A*1101
As to the kind of experiment: assembly assay, TAP-deficient cell lysate.
For the molecule KLDRERAKNK [Sur 103-112], the binding result is recorded as “no binding (tested: peptide tested at 40, 4, 0.4, 0.04 µM)”.

CAFLSVKKQF [Sur 84-93]: the binding result is given as “no binding (tested: peptide tested at 40, 4, 0.4, 0.04 µM)”.

FLKLDRERAK [Sur 101-110]: the binding result is “no binding (tested: peptide tested at 40, 4, 0.4, 0.04 µM)”.

For the molecule IAKETNNKKK [Sur 113-122], the binding result is on record as “no binding (tested: peptide tested at 40, 4, 0.4, 0.04 µM)”.

Consider DLAQCFFCF [Sur 53-61], for which the binding result is recorded as “no binding (tested: peptide tested at 40, 4, 0.4, 0.04 µM)”.

Turning to ELTLGEFLK [Sur 95-103], the binding result was “no binding (tested: peptide tested at 40, 4, 0.4, 0.04 µM)”.

Regarding RISTFKNWPF [Sur 18-27], the binding result is listed as “no binding (tested: peptide tested at 40, 4, 0.4, 0.04 µM)”.
